Experimental findings from paper PMC8939769, “The SARS-CoV-2 monoclonal antibody combination, AZD7442, is protective in non-human primates and has an extended half-life in humans” (Science Translational Medicine, 2022) are described below.

The target in assay [1] is T1, SARS-CoV-2 S trimer (S2P ectodomain protein) (SARS-CoV-2, ancestral (Wuhan-Hu-1 …, UniProt P0DTC2, stabilised)). Put plainly: cell-based or functional assay.
The target in assay [2] is T1, SARS-CoV-2 S trimer (S2P ectodomain …). In words: not stated; binding kinetics (ka, kd, KD) on the SARS-CoV-2 S trimer (S2P ectodomain protein); representative of at least two independent assays; assay details in the Supplementary materials. The conditions noted are these: both partners purified.

B1: AZD8895 (tixagevimab) (antibody, V domains shown)
VH: QMQLVQSGPEVKKPGTSVKVSCKASGFTFMSSAVQWVRQARGQRLEWIGWIVIGSGNTNYAQKFQERVTITRDMSTSTAYMELSSLRSEDTAVYYCAAPYCSSISCNDGFDIWGQGTMVTVSS
VL: not shown
What is called Kd is a measure of binding affinity in units of concentration. The low end stands for tighter binding, the high end for weaker binding. B1: the “neutralization of the USA-WA1/2020 strain of SARS-CoV-2 in vitro, IC50” value in assay [1] amounted to 9 ng/mL. This molecule displayed a dissociation constant (Kd) in assay [2] of 2.8 pM.
